We go through two molecules from publication PMC9365860 (Cell Reports, 2022).

Assay [1] addresses T1, Recombinant S1 Wuhan (residues 1–674) (SARS-CoV-2, UniProt P0DTC2).
T1 construct: source: bought: Native Antigen Company
Nature of the assay: ELISA. The note with it: both partners purified. In general terms: In an ELISA, binding on a coated surface is turned into a signal by an enzyme label.

Assay [2] concerns the target T2, Full-length SARS-CoV-2 Spike on HEK 293T cells (SARS-CoV-2, UniProt P0DTC2).
T2 construct: source: HEK293T, transfected (pcDNA3.1+), on the cell surface
Nature of the assay: flow cytometry on cells. Particulars: one partner purified. In general terms: In flow cytometry, cells or beads pass a laser one at a time.

The target in assay [3] is T3, Full-length SARS-CoV-1 Spike on HEK 293T cells (SARS-CoV-1 (SARS-CoV), isolate not …, UniProt P59594).
T3 construct: source: HEK293T, transfected (pcDNA3.1+), on the cell surface
Kind of assay: flow cytometry on cells. Particulars: one partner purified.

For assay [4], the target named is T4, Full-length MERS Spike on HEK 293T cells (MERS-CoV, isolate  (entry: …, UniProt K9N5Q8)).
T4 construct: source: HEK293T, transfected (pcDNA3.1+), on the cell surface
Kind of assay: flow cytometry on cells. The note with it: one partner purified.

Assay [5] concerns the target T5, Full-length OC43 Spike on HEK 293T cells (human coronavirus OC43, isolate not …, UniProt P36334).
T5 construct: source: HEK293T, transfected (pcDNA3.1+), on the cell surface
Nature of the assay: flow cytometry on cells. Particulars: one partner purified.

In assay [6] the target is T6, Full-length 229E Spike on HEK 293T cells (human coronavirus 229E, isolate not …, UniProt P15423).
T6 construct: source: HEK293T, transfected (pcDNA3.1+), on the cell surface
Kind of assay: flow cytometry on cells. The note with it: one partner purified.

Assay [7] concerns the target T7, Full-length NL63 Spike on HEK 293T cells (human coronavirus NL63, isolate not …, UniProt Q6Q1S2).
T7 construct: source: HEK293T, transfected (pcDNA3.1+), on the cell surface
Kind of assay: flow cytometry on cells. Particulars: one partner purified.

Assay [8] deals with T2, Full-length SARS-CoV-2 Spike on HEK ….
The target in assay [9] is T3, Full-length SARS-CoV-1 Spike on HEK ….
Assay [10] has as its target T1, Recombinant S1 Wuhan (residues 1–674).
For assay [11], the target named is Recombinant stabilized SARS-CoV-2 spike for ELISA (Wuhan) (SARS-CoV-2, Wuhan, UniProt P0DTC2, stabilised).

Like-named read-outs stand apart in the source and are kept apart here.

B1: P008_60 IgG (antibody, V domains shown)
VH: EVQLVESGGGVVQPGRSLRLTCAASGFIFSSYGMHWVRQAPGKGLEWVAVISYDGSYKYYADSVKGRFTISRDNSKNTLYLQMNSLRAEDTAVYYCTKADYYDFWSGYQKTYYYYMDVWGKGTTVTISS
VL: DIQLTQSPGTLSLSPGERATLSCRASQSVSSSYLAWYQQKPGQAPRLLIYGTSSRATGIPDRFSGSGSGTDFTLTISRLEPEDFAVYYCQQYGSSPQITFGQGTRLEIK
notes: also called mAb P008_60; P008_060; source: HEK-293F, co-transfected heavy and light plasmids, purified (protein G)
In the case of B1, the binding result was “binds” in assay [1]; “binds” in [2]; “binds” in assay [3]; “no binding (tested: 25 μg/mL)” in assay [4]; “no binding (tested: 25 μg/mL)” in [5]; “no binding (tested: 25 μg/mL)” in assay [6]. Moreover, the binding result in assay [7] is “no binding (tested: 25 μg/mL)”.

B2: VA14_47 (antibody, V domains shown)
VH: EVQLVESGGGVVQPGRSLRLSCGGSGFTFSSHAMHWVRQAPGKGLEWVAVISYDGSYQYYADSVKGRFTISRDNSKNALYLQMNSLRVEDTAIYYCARDTPDLETYYFDCWGQGTLVTVSS
VL: EIVMTQSPGTLSLSPGERATLSCRASQSVSSSYLAWYQQKPGQAPRLLIYSACSRATGIPDRFSGSGSGTDFTLTISRLEPEDFAVYYCQQYGDSPRGSFGQGTKVDIK
With B2, the binding result in assay [8], in [9], in assay [10] and in [11] was “binds” each time.
